Reference: paper PMC8956589, “Crystal structure of progeria mutant S143F lamin A/C reveals increased hydrophobicity driving nuclear deformation” (Communications Biology, 2022)

B1: wild-type lamin A/C fragment (residues 1–300) (domain or fragment, human, UniProt P02545 1-300, looked up)
chain: METPSQRRATRSGAQASSTPLSPTRITRLQEKEDLQELNDRLAVYIDRVRSLETENAGLRLRITESEEVVSREVSGIKAAYEAELGDARKTLDSVAKERARLQLELSKVREEFKELKARNTKKEGDLIAAQARLKDLEALLNSKEAALSTALSEKRTLEGELHDLRGQVAKLEAALGEAKKQLQDEMLRRVDAENRLQTMKEELDFQKNIYSEELRETKRRHETRLVEIDNGKQREFESRLADALQELRAQHEDQVEQYKKELEKTYSAKLDNARQSAERNSNLVGAAHEELQQSRIRID
notes: human lamin A/C, residues 1-300 (head, coil 1a, L1, coil 1b, L12 and part of coil 2); Dimer by SEC-MALS; The vector pProEx-HTa is named for the S143F construct; also called lamin 300 fragment; wild-type lamin 300 fragment; source: E. coli, purified (cobalt-Talon, TEV cleavage, HiTrap Q, SEC)
B2: S143F mutant lamin A/C fragment (residues 1–300) (domain or fragment, human, UniProt P02545 1-300, looked up)
chain: METPSQRRATRSGAQASSTPLSPTRITRLQEKEDLQELNDRLAVYIDRVRSLETENAGLRLRITESEEVVSREVSGIKAAYEAELGDARKTLDSVAKERARLQLELSKVREEFKELKARNTKKEGDLIAAQARLKDLEALLNFKEAALSTALSEKRTLEGELHDLRGQVAKLEAALGEAKKQLQDEMLRRVDAENRLQTMKEELDFQKNIYSEELRETKRRHETRLVEIDNGKQREFESRLADALQELRAQHEDQVEQYKKELEKTYSAKLDNARQSAERNSNLVGAAHEELQQSRIRID
notes: human lamin A/C, residues 1-300, with the disease mutation S143F (a genetic mutation found in patients); Vector pProEx-HTa; Ordered in the crystal: residues 29-229 and 31-229; also called S143F mutant lamin 300 fragment; Lamin S143F (residues 1–300); source: E. coli BL21 (DE3) or B834 (DE3), purified (cobalt-Talon, TEV cleavage, HiTrap Q, SEC)

Assays:
[1] = target: the molecule itself; assay: SEC-MALS; 2 mg/mL sample on Superdex 200 Increase 10/300 GL, 20 mM Tris-HCl (pH 7.5), 150 mM NaCl
[2] = target: B1; assay: pull-down; hexaHis-tagged lamin 250–400 immobilised on Ni-NTA resin as bait, tagless lamin 300 fragments as prey; 20 mM Tris-HCl (pH 8.0), 50 mM or 150 mM NaCl, 20 mM imidazole in the wash, room temperature, 30 min; SDS-PAGE; conditions: both partners purified
[3] = target: B2; assay: as above; conditions: both partners purified

Binder	stoichiometry N [1]	binding result [2]	binding result [3]
B1	2	–	–
B2	2	–	–
hexaHis-tagged lamin fragment (residues 250–400) (domain or fragment, human, UniProt P02545 250-400, looked up, human lamin A/C, residues 250-400 (C-terminal fragment of coil 2); also called His-lamin 2 C fragment; lamin 2 C fragment; source: E. coli, purified) AQHEDQVEQYKKELEKTYSAKLDNARQSAERNSNLVGAAHEELQQSRIRIDSLSAQLSQLQKQLAAKEAKLRDLEDSLARERDTSRRLLAEKEREMAEMRARMQQQLDEYQELLDIKLALDMEIHAYRKLLEGEEERLRLSPSPTSQRSRG	–	binds	binds
